Experimental data taken from patent US20250320312A1 (OXITOPE PHARMA B V, published 2025).

T1: Peptide 8: Biotin-AEAAAKEAAAKEAAAKEAAAKAAA-Tyr-acid (N-terminal biotin; C-terminal acid; no PC)
T1 construct: control peptide without PC
T1 peptide: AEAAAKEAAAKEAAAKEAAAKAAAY

T2: Peptide 4: Biotin-AGGGGSGGGGSGGGGSAAA-Tyr-acid (N-terminal biotin; C-terminal acid; no PC)
T2 construct: control peptide without PC
T2 peptide: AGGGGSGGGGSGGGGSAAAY


Columns and labels:
Assay in all cases: scFv ELISA
[1] = target: T1, Peptide 8: …
Procedure, shortened: (§1)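 Bound scFv was read as OD450 after HRP–anti-V5 detection, TMB development and HCl stop. PPE with BSA was incubated 1 h at RT on BSA-blocked wells coated overnight at 4° C. with peptide, or on streptavidin wells loaded 1 h with biotinylated PC-peptides at 1 μg/mL.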

[2] = target: T2, Peptide 4: …
Procedure, shortened: as §1

[3] = target: Peptide 5: Biotin-…-[Tyr(PC)]-acid
[4] = target: Peptide 1: Biotin-…-[Tyr(PC)]-acid
[5] = target: BSA (UniProt P02769)
BSA, sequence (P02769 25-607 limits assumed): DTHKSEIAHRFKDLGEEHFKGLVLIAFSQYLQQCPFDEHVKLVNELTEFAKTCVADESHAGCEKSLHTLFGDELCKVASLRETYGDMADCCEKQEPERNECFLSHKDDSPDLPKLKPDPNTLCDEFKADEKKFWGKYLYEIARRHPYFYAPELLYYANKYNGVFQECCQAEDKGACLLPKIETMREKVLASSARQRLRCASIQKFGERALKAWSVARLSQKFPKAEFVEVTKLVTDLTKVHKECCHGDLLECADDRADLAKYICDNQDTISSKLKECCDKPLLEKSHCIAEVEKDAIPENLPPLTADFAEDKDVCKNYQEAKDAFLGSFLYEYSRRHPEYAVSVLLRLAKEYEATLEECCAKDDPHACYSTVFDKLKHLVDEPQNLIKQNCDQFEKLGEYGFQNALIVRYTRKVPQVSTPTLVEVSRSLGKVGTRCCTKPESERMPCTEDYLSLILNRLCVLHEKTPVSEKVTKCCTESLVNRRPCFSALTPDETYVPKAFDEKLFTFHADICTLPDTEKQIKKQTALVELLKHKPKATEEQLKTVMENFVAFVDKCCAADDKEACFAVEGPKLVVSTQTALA

Row | Binder | OD450 [1] [OD450] | OD450 [2] [OD450] | OD450 [3] [OD450] | OD450 [4] [OD450] | OD450 [5] [OD450]
1 | PcOxP_DB04_B08 (scFv, V domains shown, scFv in periplasmic extract) VH: EVQLLESGGGLVQPGGSLRLSCAASGFTFSDDYMEWVRQAPGKGLEWVAASRNKANDYTTEYADSVKGRFTISRDNSKNTLYLQMNSLRAEDTAVYYCARDYYGSSYWYFDVWGQGTLVTVSS VL: DIQMTQSPSSLSASVGDRVTITCTASESLYSSKHKVHYLAWYQQKPGKAPKLLIYGLSNRYIGVPSRFSGSGSGTDFTLTISSLQPEDFATYYCAQFFSYPLTFGGGTKVEIK | 0.05 | 0.06 | 1.56 | 1.33 | 0.11
2 | PcOxP_DB03_H03 (scFv, V domains shown, scFv in periplasmic extract) VH: EVQLLESGGGLVQPGGSLRLSCAASGFTGSDFYMEWVRQAPGKGLEWVAASRNKWNDYTTEYADSVKGRFTISRDNSKNTLYLQMNSLRAEDTAVYYCARDYYGSSYWYFDVWGQGTLVTVSS VL: DIQMTQSPSSLSASVGDRVTITCTASESLSSSKHKHYLAWYQQKPGKAPKLLIYGASSRYSGVPSRFSGSGSGTDFTLTISSLQPEDFATYYCAQFYSYPLTFGGGTKVEIK | 0.07 | 0.07 | 1.32 | 0.27 | 0.12
3 | PcOxP_DB01_A03 (scFv, V domains shown, scFv in periplasmic extract) VH: EVQLLESGGGLVQPGGSLRLSCAASGFTFSDYYMEWVRQAPGKGLEWVAASRNKANDYTTEYADSVKGRFTISRDNSKNTLYLQMNSLRAEDTAVYYCARDYYGSSYWYFDVWGQGTLVTVSS VL: DIVMTQSPDSLAVSLGERATINCTASESLYSSKHKVHYLAWYQQKPGQPPKLLIYGASNRYIGVPDRFSGSGSGTDFTLTISSLQAEDVAVYYCAQFYSYPLTFGGGTKVEIK | 0.04 | 0.05 | 1.38 | 0.86 | 0.07
4 | PcOxP_DB04_H03 (scFv, V domains shown, scFv in periplasmic extract) VH: EVQLLESGGGLVQPGGSLRLSCAASGFPFSDFYMEWVRQAPGKGLEWVAASRNKANDYTTEYADSVKGRFTISRDNSKNTLYLQMNSLRAEDTAVYYCARDYYGSSYWYFDVWGQGTLVTVSS VL: DIQMTQSPSSLSASVGDRVTITCRASESLYSSLHKYLAWYQQKPGKAPKLLIYGASNLQIGVPSRFSGSGSGTDFTLTISSLQPEDFATYYCAQFYSYPLTFGGGTKVEIK | 0.08 | 0.07 | 1.05 | 0.8 | 0.1
5 | PcOxP_DB04_H10 (scFv, V domains shown, scFv in periplasmic extract) VH: EVQLLESGGGLVQPGGSLRLSCAASGATFSDFYVEWVRQAPGKGLEWVAASRNKANDYTTEYADSVKGRFTISRDNSKNTLYLQMNSLRAEDTAVYYCARDYYGSSYWYFDVWGQGTLVTVSS VL: DIQMTQSPSSLSASVGDRVTITCTASESLYSSKHKVHYLAWYQQKPGKAPKLLIYGPSNRYIGVPSRFSGSGSGTDFTLTISSLQPEDFATYYCAQFYSYPLTFGGGTKVEIK | 0.07 | 0.08 | 1.01 | 0.54 | 0.1
6 | PcOxP_DB04_H08 (scFv, V domains shown, scFv in periplasmic extract) VH: EVQLLESGGGLVQPGGSLRLSCAASGFTFSDGYMEWVRQAPGKGLEWVAASRNKANDYTTEYADSVKGRFTISRDNSKNTLYLQMNSLRAEDTAVYYCARDYYGSSYWYFDVWGQGTLVTVSS VL: DIQMTQSPSSLSASVGDRVTITCTASESLYSSKHKVHYLAWYQQKPGKAPKLLIYGASNLYSGVPSRFSGSGSGTDFTLTISSLQPEDFATYYCAQFYSYPLTFGGGTKVEIK | 0.06 | 0.07 | 1.42 | 0.85 | 0.09
7 | PcOxP_DB04_F11 (scFv, V domains shown, scFv in periplasmic extract) VH: EVQLLESGGGLVQPGGSLRLSCAASGFTGSDFYMEWVRQAPGKGLEWVAASRGKGNSYTTEYADSVKGRFTISRDNSKNTLYLQMNSLRAEDTAVYYCARDYYGSSTWYFDVWGQGTLVTVSS VL: DIQMTQSPSSLSASVGDRVTITCTASESLYSSKHKVHYLAWYQQKPGKAPKLLIYGASNRYAGVPSRFSGSGSGTDFTLTISSLQPEDFATYYCGQFYSYPLTFGGGTKVEIK | 0.06 | 0.07 | 1.27 | 0.58 | 0.1
8 | PcOxP_DB04_D08 (scFv, V domains shown, scFv in periplasmic extract) VH: EVQLLESGGGLVQPGGSLRLSCAASGFTFSDHYMEWVRQAPGKGLEWVAASRNKANDYTTEYADSVKGRFTISRDNSKNTLYLQMNSLRAEDTAVYYCARDYYGSSYWYFDVWGQGTLVTVSS VL: DIQMTQSPSSLSASVGDRVTITCTASESLYSSKHKVHYLAWYQQKPGKAPKLLIYGASNRAIGVPSRFSGSGSGTDFTLTISSLQPEDFATYYCAQFYTYPLTFGGGTKVEIK | 0.07 | 0.07 | 1.96 | 1.6 | 0.12
9 | PcOxP_DB04_G06 (scFv, V domains shown, scFv in periplasmic extract) VH: EVQLLESGGGLVQPGGSLRLSCAASGFTFSDFYMEWVRQAPGKGLEWVAASRWKANDYTTEYADSVKGRFTISRDNSKNTLYLQMNSLRAEDTAVYYCARDYYESSYWYFDVWGQGTLVTVSS VL: DIQMTQSPSSLSASVGDRVTITCTASQSLYSSKHKVHYLAWYQQKPGKAPKLLIYGASNRYIGVPSRFSGSGSGTDFTLTISSLQPEDFATYYCAQFYVYPLTFGGGTKVEIK | 0.07 | 0.07 | 1.12 | 1.03 | 0.11
10 | PcOxP_DB04_F06 (scFv, V domains shown, scFv in periplasmic extract) VH: EVQLLESGGGLVQPGGSLRLSCAASGDTFSDFYMEWVRQAPGKGLEWVAASRNKANDYTTEYADSVKGRFTISRDNSKNTLYLQMNSLRAEDTAVYYCARDYYGSSYWYFDVWGQGTLVTVSS VL: DIQMTQSPSSLSASVGDRVTITCTASESLSSSKHKVHYLAWYQQKPGKAPKLLIYGASNRYIGVPSRFSGSGSGTDFTLTISSLQPEDFATYYCAQFYSYPLTFGGGTKVEIK | 0.06 | 0.06 | 1.3 | 0.75 | 0.1
11 | PcOxP_DB04_C08 (scFv, V domains shown, scFv in periplasmic extract) VH: EVQLLESGGGLVQPGGSLRLSCAASGETFSDFYMEWVRQAPGKGLEWVAASRNKANDYTTEYADSVKGRFTISRDNSKNTLYLQMNSLRAEDTAVYYCARDYYGSSYWYFDVWGQGTLVTVSS VL: DIQMTQSPSSLSASVGDRVTITCTASESLYSSKHGVHYLAWYQQKPGKAPKLLIYGASNRYIGVPSRFSGSGSGTDFTLTISSLQPEDFATYYCAQFYQYPLTFGGGTKVEIK | 0.06 | 0.05 | 1.07 | 0.69 | 0.08
12 | PcOxP_DB04_H07 (scFv, V domains shown, scFv in periplasmic extract) VH: EVQLLESGGGLVQPGGSLRLSCAASGFTFEDFYMEWVRQAPGKGLEWVAASRNKANDYTTEYADSVKGRFTISRDNSKNTLYLQMNSLRAEDTAVYYCARDYYGSSYWYFDVWGQGTLVTVSS VL: DIQMTQSPSSLSASVGDRVTITCTASESLYSSKHKVHYLAWYQQKPGKAPKLLIYGASNRVIGVPSRFSGSGSGTDFTLTISSLQPEDFATYYCAQFYSYPLTFGGGTKVEIK | 0.05 | 0.06 | 1.02 | 0.58 | 0.09
13 | PcOxP_DB04_C03 (scFv, V domains shown, scFv in periplasmic extract) VH: EVQLLESGGGLVQPGGSLRLSCAASGFTTSDFYMEWVRQAPGKGLEWVAASRNKANSYTTEYADSVKGRFTISRDNSKNTLYLQMNSLRAEDTAVYYCARDYYGSSYWYFDVWGQGTLVTVSS VL: DIQMTQSPSSLSASVGDRVTITCTASESLYSSKHKVHYLAWYQQKPGKAPKLLIYGASSLYSGVPSRFSGSGSGTDFTLTISSLQPEDFATYYCAQFYEYPLTFGGGTKVEIK | 0.06 | 0.06 | 1.87 | 1.34 | 0.1
14 | PcOxP_DB01_A08 (scFv, V domains shown, scFv in periplasmic extract) VH: EVQLLESGGGLVQPGGSLRLSCAASGFTQSDFYMEWVRQAPGKGLEWVAAIRNKANSYTTEYADSVKGRFTISRDNSKNTLYLQMNSLRAEDTAVYYCARDYYGSSYWYFDVWGQGTLVTVSS VL: DIVMTQSPDSLAVSLGERATINCTASESVYSSKNKKHYLAWYQQKPGQPPKLLIYGASNRYIGVPDRFSGSGSGTDFTLTISSLQAEDVAVYYCAQFYSYPLTFGGGTKVEIK | 0.05 | 0.05 | 1.12 | 0.16 | 0.09
15 | PcOxP_DB01_A05 (scFv, V domains shown, scFv in periplasmic extract) VH: EVQLLESGGGLVQPGGSLRLSCAASGFTFSDYYMEWVRQAPGKGLEWVAASRNKANDYTTEYADSVKGRFTISRDNSKNTLYLQMNSLRAEDTAVYYCARDYYGNSYWYFDVWGQGTLVTVSS VL: DIVMTQSPDSLAVSLGERATINCTASESLYSSKHKVHYLAWYQQKPGQPPKLLIYGASNRYIGVPDRFSGSGSGTDFTLTISSLQAEDVAVYYCAQFYSYPLTFGGGTKVEIK | 0.04 | 0.04 | 1.28 | 0.83 | 0.06
16 | PcOxP_DB01_A04 (scFv, V domains shown, scFv in periplasmic extract) VH: EVQLLESGGGLVQPGGSLRLSCAASGFTHSDFYMEWVRQAPGKGLEWVAASRNKANDYTTEYADSVKGRFTISRDNSKNTLYLQMNSLRAEDTAVYYCARDYYGSSYWYFDVWGQGTLVTVSS VL: DIVMTQSPDSLAVSLGERATINCTASESLYSSKHKVHYLAWYQQKPGQPPKLLIYGASNRYIGVPDRFSGSGSGTDFTLTISSLQAEDVAVYYCAQFYSYPLTFGGGTKVEIK | 0.04 | 0.04 | 0.75 | 0.31 | 0.07
